This note sets out measurements from the supplement of paper PMC10567573.

B1: RSPH3 (parent)
chain: FIPAKTGKDVATQILEGELFDFDL
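Also: lentivirally expressed fusions sorted by FACS into six bins by GFP to DsRed ratio, PSI derived from sequencing read proportions per bin multiplied by bin number.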

The variants in this series derive from B1. Briefly: protein stability index of a GFP-peptide fusion (GPS, HEK-293T) (PSI 1-6); higher = more stable. The settings on record: c terminus: a fixed tail appended.
With FIRAKTGKDVATQILEGELFDFDL [P3R], the protein stability index was 1.94. With FITAKTGKDVATQILEGELFDFDL [P3T], the protein stability index was found to be 2.24.

Take FIVAKTGKDVATQILEGELFDFDL [P3V]: the protein stability index turned out to be 1.59.

In the case of FIYAKTGKDVATQILEGELFDFDL [P3Y], the protein stability index turned out to be 1.52. As for FIIAKTGKDVATQILEGELFDFDL [P3I], the protein stability index came to 1.97. As for FIAAKTGKDVATQILEGELFDFDL [P3A], the protein stability index is 2.27. As for FIGAKTGKDVATQILEGELFDFDL [P3G], the figure is 2.5. As for FISAKTGKDVATQILEGELFDFDL [P3S], the figure is 2.56; as for FILAKTGKDVATQILEGELFDFDL [P3L], 2.71; as for FIKAKTGKDVATQILEGELFDFDL [P3K], 2.4. As for FIEAKTGKDVATQILEGELFDFDL [P3E], the figure is 2.83; as for FIFAKTGKDVATQILEGELFDFDL [P3F], 2.2.

With FINAKTGKDVATQILEGELFDFDL [P3N], the protein stability index turned out to be 2.24. Next, FIHAKTGKDVATQILEGELFDFDL [P3H]: 1.85. On to FIDAKTGKDVATQILEGELFDFDL [P3D], for which the protein stability index is 2.63. Next, FIMAKTGKDVATQILEGELFDFDL [P3M]: 1.6; FICAKTGKDVATQILEGELFDFDL [P3C]: 1.72. Next, FIWAKTGKDVATQILEGELFDFDL [P3W]: 2.43; FIQAKTGKDVATQILEGELFDFDL [P3Q]: 2.5. Next, FIPSKTGKDVATQILEGELFDFDL [A4S]: 1.64; FIPCKTGKDVATQILEGELFDFDL [A4C]: 2.08.

For FIPPKTGKDVATQILEGELFDFDL [A4P], the protein stability index worked out at 1.55. As for FIPTKTGKDVATQILEGELFDFDL [A4T], the figure is 1.96; as for FIPNKTGKDVATQILEGELFDFDL [A4N], 2.35; as for FIPLKTGKDVATQILEGELFDFDL [A4L], 2.09. As for FIPHKTGKDVATQILEGELFDFDL [A4H], the figure is 1.62; as for FIPGKTGKDVATQILEGELFDFDL [A4G], 2.48.

Take FIPQKTGKDVATQILEGELFDFDL [A4Q]: the protein stability index worked out at 2.05. With FIPEKTGKDVATQILEGELFDFDL [A4E], the protein stability index turned out to be 2.51.

In the case of FIPVKTGKDVATQILEGELFDFDL [A4V], the protein stability index turned out to be 2.28. On to FIPWKTGKDVATQILEGELFDFDL [A4W], for which the protein stability index came out at 1.6.

Regarding FIPKKTGKDVATQILEGELFDFDL [A4K], the protein stability index was found to be 1.9. Next, FIPMKTGKDVATQILEGELFDFDL [A4M]: 2.74; FIPFKTGKDVATQILEGELFDFDL [A4F]: 2.33. FIPDKTGKDVATQILEGELFDFDL [A4D]: the protein stability index stood at 2.25. As for FIPYKTGKDVATQILEGELFDFDL [A4Y], the figure is 1.54; as for FIPIKTGKDVATQILEGELFDFDL [A4I], 1.62.

As to FIPAKTGKRVATQILEGELFDFDL [D9R], the protein stability index came out at 2.06.

With FIPAKTGKSVATQILEGELFDFDL [D9S], the protein stability index was found to be 1.82. FIPAKTGKLVATQILEGELFDFDL [D9L]: the protein stability index is 2.77. Next, FIPAKTGKTVATQILEGELFDFDL [D9T]: 1.77. Next, FIPAKTGKAVATQILEGELFDFDL [D9A]: 1.25. As for FIPAKTGKKVATQILEGELFDFDL [D9K], the figure is 1.65; as for FIPAKTGKGVATQILEGELFDFDL [D9G], 2.23. With FIPAKTGKNVATQILEGELFDFDL [D9N], the protein stability index was determined as 3.27. Next, FIPAKTGKEVATQILEGELFDFDL [D9E]: 1.81. Next, FIPAKTGKIVATQILEGELFDFDL [D9I]: 1.42; FIPAKTGKFVATQILEGELFDFDL [D9F]: 2.59; FIPAKTGKVVATQILEGELFDFDL [D9V]: 2.29.

For FIPAKTGKWVATQILEGELFDFDL [D9W], the protein stability index is 3.31. Next, FIPAKTGKHVATQILEGELFDFDL [D9H]: 2.03; FIPAKTGKPVATQILEGELFDFDL [D9P]: 1.78; FIPAKTGKCVATQILEGELFDFDL [D9C]: 2.43. Next, FIPAKTGKYVATQILEGELFDFDL [D9Y]: 2.06. Next, FIPAKTGKQVATQILEGELFDFDL [D9Q]: 1.68; FIPAKTRKDVATQILEGELFDFDL [G7R]: 1.82. For FIPAKTCKDVATQILEGELFDFDL [G7C], the protein stability index is 1.79. Next, FIPAKTWKDVATQILEGELFDFDL [G7W]: 2.83; FIPAKTYKDVATQILEGELFDFDL [G7Y]: 1.88; FIPAKTVKDVATQILEGELFDFDL [G7V]: 2.2. For the variant FIPAKTNKDVATQILEGELFDFDL [G7N], the protein stability index was 1.85.

With FIPAKTHKDVATQILEGELFDFDL [G7H], the protein stability index turned out to be 2.08. Next, FIPAKTLKDVATQILEGELFDFDL [G7L]: 2.12; FIPAKTIKDVATQILEGELFDFDL [G7I]: 1.96; FIPAKTTKDVATQILEGELFDFDL [G7T]: 1.77. Next, FIPAKTMKDVATQILEGELFDFDL [G7M]: 1.43. As for FIPAKTPKDVATQILEGELFDFDL [G7P], the figure is 2.82; as for FIPAKTAKDVATQILEGELFDFDL [G7A], 1.83. For the variant FIPAKTQKDVATQILEGELFDFDL [G7Q], the protein stability index worked out at 1.97. As for FIPAKTKKDVATQILEGELFDFDL [G7K], the figure is 2.03; as for FIPAKTSKDVATQILEGELFDFDL [G7S], 2.08; as for FIPAKTFKDVATQILEGELFDFDL [G7F], 1.45.

Take FIPAKTEKDVATQILEGELFDFDL [G7E]: the protein stability index stood at 2.08. Consider FIPAKTDKDVATQILEGELFDFDL [G7D], for which the protein stability index was 2.46. With FIPAKTGLDVATQILEGELFDFDL [K8L], the protein stability index stood at 2.44. Next, FIPAKTGFDVATQILEGELFDFDL [K8F]: 1.32. On to FIPAKTGEDVATQILEGELFDFDL [K8E], for which the protein stability index was found to be 2.43.

As to FIPAKTGVDVATQILEGELFDFDL [K8V], the protein stability index turned out to be 2.52. Next, FIPAKTGIDVATQILEGELFDFDL [K8I]: 1.74; FIPAKTGGDVATQILEGELFDFDL [K8G]: 1.71. On to FIPAKTGQDVATQILEGELFDFDL [K8Q], for which the protein stability index is 2.1.

As for FIPAKTGPDVATQILEGELFDFDL [K8P], the protein stability index stood at 2.15. Consider FIPAKTGRDVATQILEGELFDFDL [K8R], for which the protein stability index stood at 2.37. Next, FIPAKTGDDVATQILEGELFDFDL [K8D]: 2.22; FIPAKTGTDVATQILEGELFDFDL [K8T]: 1.6; FIPAKTGNDVATQILEGELFDFDL [K8N]: 2.06. As for FIPAKTGADVATQILEGELFDFDL [K8A], the figure is 2.13; as for FIPAKTGHDVATQILEGELFDFDL [K8H], 1.9. Next, FIPAKTGYDVATQILEGELFDFDL [K8Y]: 2.27; FIPAKTGMDVATQILEGELFDFDL [K8M]: 1.63. On to FIPAKTGSDVATQILEGELFDFDL [K8S], for which the protein stability index was 1.93. As for FIPAKTGCDVATQILEGELFDFDL [K8C], the figure is 2.58.

For the variant KIPAKTGKDVATQILEGELFDFDL [F1K], the protein stability index was determined as 4.24.

With CIPAKTGKDVATQILEGELFDFDL [F1C], the protein stability index amounted to 3.55.
